Tests used:
Format in all cases: cell-based, rat
[1] = system: Hes1 mRNA; experiment: Real-time quantitative RT-PCR of Hes1 in neural precursors; conditions: 60 hours exposure
Excerpt: Signaling via gp130, the co-receptor of the IL-6 receptor, stimulates the Notch1 pathway, resulting in an increase in expression of the mammalian homolog of hairy-enhancer-of-split, Hes 1, transcription factor and antagonism of pro-neural basic helix-loop-helix (bHLH) genes and hippocampal neurogenesis during development. To determine if IL-6 treatment of adult stem cells leads to an increase in Hes 1 consistent with the reduction in neuronal cell fate, “real-time” quantitative RT-PCR was performed on total RNA extracted from neural precursors exposed for 60 hours to activated microglial CM or IL-6. Both CM and IL-6 caused a dramatic increase in Hes1 mRNA expression (3.2- and 7.7-fold increase respectively, relative to control).
Total RNA isolation, cDNA synthesis, and SYBR Green real-time quantitative RT-PCR. […] Quantitative SYBR Green real time PCR was carried out as described previously. […] Quantitative RT-PCR was performed on ABI 5700 PCR instrument (PerkinElmer Life Sciences) by using 3-stage program parameters provided by the manufacturer as follows; 2 min at 50° C., 10 min at 95° C., and then 40 cycles of 15 s at 95° C. and 1 min at 60° C. […] Each sample was tested in five copies with quantitative PCR, and samples obtained from three independent experiments were used to calculate the means and standard deviations. […]

[2] = system: adult hippocampus-derived neural precursor cells; experiment: Proliferation (BrdU) and survival (TUNEL) assays in differentiating neural precursor cultures
Procedure: Proliferation and survival assays BrdU was added to the culture media from hour 24 to hour 48 of the 60 hour paradigm. Immunocytochemistry and confocal microscopy was then used to determine the fraction of GFP+ cells that labeled with BrdU, TUNEL, or type III β-tubulin or doublecortin. TUNEL staining was performed with Apoptag Red (Serologicals, Norcross, Ga.). The fraction of total (DAPI+) nuclei that were TUNEL+ were determined, as well as the fraction of doublecortin positive cells that were also TUNEL+.

[3] = system: adult hippocampus-derived neural precursor cells; experiment: In vitro neuronal differentiation (doublecortin) of hippocampal neural progenitor cells, 60 hours; conditions: 60 hours
Excerpt: Neuroinflammation could inhibit neurogenesis by a variety of mechanisms, including stimulation of the HPA axis with subsequent elevation of gluccocorticoids, alterations in the relationships between progenitor cells and cells of the neuro-vasculature, or direct effects of activated microglia on the precursor cells. To determine the extent to which microglial activation might directly affect neural stem/progenitor cells, microglia were stimulated in vitro with LPS. LPS is a potent activator of microglia and up-regulates the elaboration of pro-inflammatory cytokines, including IL-6 and TNF-α. LPS-stimulated or resting microglia were then co-cultured with normal neural stem cells from the hippocampus under conditions that typically stimulate the differentiation of 30 to 40% of the progenitor cells into immature Dcx-expressing neurons (normalized to a value of 1 in FIG. 2A, control). Neurogenesis in the presence of microglia was assessed as the increase or decrease in Dcx-expressing cells relative to control. Co-culture with activated, but not resting, microglia decreased in vitro neurogenesis to approximately half of control levels (FIG. 2A). LPS added directly to precursor cells had no effect on neurogenesis.
To determine if this effect was due to soluble factors or due to cell-cell contact, hippocampal precursor cells were differentiated in the presence of media pre-conditioned by resting or activated microglia.
Activated microglia produce the potent pro-inflammatory cytokines interleukin-1β (IL-1β), tumor necrosis factor-α (TNF-α), interferon-γ (INF-γ) and interleukin-6 (IL-6). Progenitor cells were allowed to differentiate in the presence of each cytokine and the relative expression of Dcx was scored after 60 hours. […] Addition of neutralizing anti-IL-6 antibody to CM from activated microglia was able to fully restore in vitro neurogenesis (FIG. 2A). This implicated IL-6 as a key inhibitor of neurogenesis in microglial CM. […] In contrast to neurogenesis, gliogenesis was unaffected by IL-6 exposure as indicated by the lack of change in the number of cells expressing the astrocyte (glial fibrillary acidic protein, GFAP) or early oligodendrocyte (NG2) markers relative to control cultures (FIG. 2E). The hippocampal precursors used in this study do express the IL-6 receptor, as confirmed by RT-PCR (FIG. 5).
Progenitor Cell Culture Adult hippocampus-derived neural precursor cells were isolated from adult rat hippocampus and cultured as previously described. Briefly, adult female Fisher-344 rats were deeply anesthetized with sodium pentobarbital and were dissected immediately. Hippocampi were enzymatically dissociated with papain (2.5 U/ml; Worthington, Freehold, N.J.)-dispase II (1 U/ml; Boehringer Mannheim, Indianapolis, Ind.)-DNase I (250 U/ml, Worthington) solution. Digested tissue was then washed with DMEM-10% fetal calf serum (FCS) and subsequently mixed with PBS-equilibrated Percoll solution to a final concentration of 35% Percoll. The Percoll solution was made by mixing nine parts of Percoll (Amersham Pharmacia Biotech, Uppsala, Sweden) with one part of 10× PBS. The cell suspension was then fractionated by centrifugation for 10 min at 1000×gravity. Floating myelin and tissue debris were discarded and the cell pellet re-suspended in 65% Percoll solution and fractionated again by centrifugation for 10 min at 1000×g. The floating neural precursors were collected, washed free of Percoll, and plated onto poly-L-ornithine/laminin-coated dishes in DMEM/F12 (1:1) containing 10% FCS medium for 24 hrs; then medium was replaced with serum-free growth medium consisting of DMEM/F12 (1:1) supplemented with N2 supplement (Life Technologies, Gaithersburg, Md.) and 20 ng/ml of human recombinant FGF-2 (Peprotech, Rocky Hill, N.J.). Cell lines were labeled via infection with replication deficient GFP-expressing recombinant retrovirus LZRS-CAMut4GFP. […]

B1: IL-6: recombinant rat interleukin-6 (protein)
chain: FPTSQVRRGDFTEDTTPNRPVYTTSQVGGLITHVLWEIVEMRKELCNGNSDCMNNDDALAENNLKLPEIQRNDGCYQTGYNQEICLLKISSGLLEYHSYLEYMKNNLKDNKKDKARVLQRDTETLIHIFNQEVKDLHKIVLPTPISNALLTDKLESQKEWLRTKTIQFILKSLEEFLKVTLRSTRQT
Question: Which “increase in Hes1 mRNA expression relative to control” value [1] does the source give for B1 here?
Answer: Its value is 7.7 fold.

Question: And the “fraction of TUNEL-positive apoptotic cells” value ([2]; mean+/-s.e.m., differentiating culture, IL-6 50 ng/ml)?
Answer: The value was 0.068+/−0.005.

Question: And the “fraction of TUNEL-positive cells that co-labeled with doublecortin” value ([2]; mean+/-sem)?
Answer: The value was 0.83+/−0.02.

Question: And the “mitotic index (fraction of cells labeled with BrdU in 24 hours)” value ([2]; stem cell cultures)?
Answer: The value was 95+/−1.7%.

Question: And the “BrdU labeling within the neuronal progeny” value ([2]; subset of spontaneously forming immature neurons)?
Answer: Its value is 82+/−1.6%.

Question: And the “gliogenesis (cells expressing GFAP or NG2 relative to control)” value ([3]; IL-6 50 ng/ml)?
Answer: The value was “unaffected”.

Question: What about the “decrease of in vitro neurogenesis (relative expression of Dcx)” value ([3]; recombinant IL-6 50 ng/ml or TNF-α 20 ng/ml) of the same molecule?
Answer: Its value is “approximately 50%”.

— patent US7998460B2, “Prevention of deficits in neurogenesis with anti-inflammatory agents” (The Board of Trustees of the Leland Stanford Junior …, priority 2003, dated 2011)
